Experimental data taken from patent US6521748B2, “Polynucleotide encoding a mutant Rhodotorula glutinis tyrosine ammonia lyase polypeptide” (E. I. du Pont de Nemours and Company, priority 1999, dated 2003).
Numbering of substitutions follows the chain as printed. Read-outs that look alike come from different tables or passages of the source.

Columns and labels:
[1] = system: tyrosine-auxotrophic E. coli strain AT2471 containing pCA18Km; experiment: Toxicity of PHCA to tyrosine-auxotrophic E. coli on minimal plate; format: cell-based; set-up: key to cell growth: −: no growth; +: very poor growth; ++: poor growth; +++: good growth; conditions: for cell growth: 0.004 mM tyrosine added
Method: (§1) In order to find the suitable condition for selection, cell growth was tested on a minimal plate containing various concentrations of tyrosine or PHCA (see Table 9).

[2] = system: tyrosine-auxotrophic E. coli strain AT2471 containing pCA18Km; experiment: Growth of tyrosine-auxotrophic E. coli on minimal plate with tyrosine; format: cell-based; set-up: key: −: no growth; +: very poor growth; ++: poor growth; +++: good growth; conditions: no PHCA
Method: as §1

[3] = Whole cell TAL/PAL activity ratio (follow-up assay after high throughput screen); format: cell-based, E. coli
Method: The following assay was performed to confirm that fully active mutant PAL enzyme was produced in BL21(DE3) E. coli cells. E. coli cells were grown in LB medium overnight. One mL of cell culture was pelleted and resuspended in 1 mL of 50 mM Tris-HCl buffer (pH 8.5) containing 0.5 mM tyrosine (for TAL activity measurement) or phenylalanine (for PAL activity measurement). The reaction mixture was incubated on the shaker at 37 C. for 1 hr. The reaction mixture was filtrated using 0.2 μm pore size filter (Millipore, Bedford, Mass.), and injected into HPLC (Hewlett-Packard Company, Palo Alto, Calif.). TAL or PAL activity was determined by measuring the concentration of the resulting PHCA or cinnamate. […]
5,000 mutant colonies were picked from agarose plates and screened by high throughput assay (Example 20). The initial hits were further investigated by a follow-up assay to confirm screening results. The TAL and PAL activities were measured using the whole cell assay, described in Example 17, and then ratio of TAL/PAL activities was calculated. The following table summarizes results of the follow-up assay for four mutants with altered TAL/PAL ratios:
A total of 5,000 mutant colonies from these three libraries were screened by high throughput assay (Example 20). Initial hits were further investigated by a follow-up HPLC assay to confirm the screening results as described in Example 21. One mutant with improved TAL/PAL ratio was found (Table 19).

[4] = Enzyme kinetics of purified wild type and mutant PAL, TAL activity (spectrophotometric); format: biochemical; conditions: tyrosine as substrate; for Km: Lineweaver-Burke plot; for kcat: from Vmax assuming four active sites
Method: (§2) The PAL or TAL activity of the purified enzymes were measured using a spectrophotometer according to Abell et al., “Phenylalanine Ammonia-lyase from Yeast Rhodotorula glutinis,” Methods Enzymol. 142:242-248 (1987). The spectrophotometric assay for PAL determination was initiated by the addition of the enzyme to a solution containing 1.0 mM L-phenylalanine and 50 mM Tris-HCl (pH 8.5). The reaction was then followed by monitoring the absorbance of the product, cinnamic acid, at 290 nm using a molar extinction coefficient of 9000 cm^−1. The assay was run over a 5 min period using an amount of enzyme that produced absorbance changes in the range of 0.0075 to 0.018/min. One unit of activity indicated deamination of 1.0 μmol of phenylalanine to cinnamic acid per minute. The TAL activity was similarly measured using tyrosine in the reaction solution. The absorbance of the para-hydroxycinnamic acid produced was followed at 315 nm and the activity was determined using an extinction coefficient of 10,000 cm^−1 for PHCA. One unit of activity indicated deamination of 1.0 μmol of tyrosine to para-hydroxycinnamic acid per minute.
(§3) A detailed enzyme kinetics analysis using the yeast wild type and the purified mutant PAL enzyme and tyrosine or phenylalanine as substrate, was carried out. The PAL and TAL activities were measured spectrophotometrically as described in the General Methods and the KM and Vmax were determined from its Lineweaver-Burke plot. The kcat was calculated from Vmax assuming the presence of four active sites in the active tetramer.

[5] = TAL specific activity in cell free extracts; format: biochemical; conditions: cell free extract of E. coli clones over-expressing PAL from pKK223-3
Method: as §2
(§4) The cell pellet was resuspended with 0.5 mL/g cells, 50 mM Tris-HCl buffer (pH 8.5) and disrupted by a single passage through the French Pressure Cell at 20,000 psi. The disrupted cells were then centrifuged for 30 min at 14,200×g to remove the unbroken cell mass. […]

[6] = Ratio of TAL to PAL catalytic efficiency of purified enzymes; format: biochemical
Method: as §3
The catalytic efficiency, defined as kcat/KM, was calculated for both the wild type and mutant enzyme. The ratio of the TAL catalytic efficiency versus the PAL of the wild type enzyme was 0.5 while that of the mutant enzymes had increased to 1.7 (see Table 11).

[7] = Enzyme kinetics of purified wild type and mutant PAL, PAL activity (spectrophotometric); format: biochemical; conditions: phenylalanine as substrate; for Km: Lineweaver-Burke plot; for kcat: from Vmax assuming four active sites
Method: as §2, §3

[8] = PAL specific activity in cell free extracts; format: biochemical; conditions: cell free extract of E. coli clones over-expressing PAL from pKK223-3
Method: as §2, §4

[9] = Ratio of PAL to TAL specific activity; format: biochemical; conditions: purified enzyme
Method: The PAL or TAL activity of the purified enzymes were measured using a spectrophotometer according to Abell et al., “Phenylalanine Ammonia-lyase from Yeast Rhodotorula glutinis,” Methods Enzymol. […] The spectrophotometric assay for PAL determination was initiated by the addition of the enzyme to a solution containing 1.0 mM L-phenylalanine and 50 mM Tris-HCl (pH 8.5). The reaction was then followed by monitoring the absorbance of the product, cinnamic acid, at 290 nm using a molar extinction coefficient of 9000 cm^−1. The assay was run over a 5 min period using an amount of enzyme that produced absorbance changes in the range of 0.0075 to 0.018/min. One unit of activity indicated deamination of 1.0 μmol of phenylalanine to cinnamic acid per minute. The TAL activity was similarly measured using tyrosine in the reaction solution. The absorbance of the para-hydroxycinnamic acid produced was followed at 315 nm and the activity was determined using an extinction coefficient of 10,000 cm^−1 for PHCA. One unit of activity indicated deamination of 1.0 μmol of tyrosine to para-hydroxycinnamic acid per minute.
The PAL/TAL activity was determined as described above.

[10] = Whole cell PAL/TAL activity of colonies from the selection plates; format: cell-based, E. coli; conditions: whole cell assay
Method: An HPLC assay was developed for measuring the levels of cinnamic acid and PHCA formed by the whole cells. In a typical assay, following centrifugation of a culture grown in the medium of choice, 20-1000 μL of the supernatant was acidified with phosphoric acid, filtered through a 0.2 or 0.45 micron filter and analyzed by the HPLC to determine the concentration of PHCA and cinnamic acid in the growth medium. Alternatively, following centrifugation, the cells were resuspended in 100 mM Tris-HCl (pH 8.5) containing 1.0 mM tyrosine or 1.0 mM phenylalanine and incubated at room temperature for 1.0-16 h. A filtered aliquot (20-1000 μL) of this suspension was then analyzed.
The colonies that had appeared on the selection plates were analyzed for their PAL/TAL activity using the whole cell assay described in the general methods. […] Genetic analysis for the EP18Km-6 mutant was carried out. The plasmid DNA was purified from the mutant cells, and then re-transformed into E. coli. […] To better characterize the mutants, the following analyses were carried out.

[11] = Whole cell TAL activity assay (HPLC) in BL21(DE3) E. coli cells; format: cell-based; conditions: for TAL Activity (%): 0.5 mM tyrosine, 37 C, 1 hr
Method: The following assay was performed to confirm that fully active mutant PAL enzyme was produced in BL21(DE3) E. coli cells. E. coli cells were grown in LB medium overnight. One mL of cell culture was pelleted and resuspended in 1 mL of 50 mM Tris-HCl buffer (pH 8.5) containing 0.5 mM tyrosine (for TAL activity measurement) or phenylalanine (for PAL activity measurement). The reaction mixture was incubated on the shaker at 37 C. for 1 hr. The reaction mixture was filtrated using 0.2 μm pore size filter (Millipore, Bedford, Mass.), and injected into HPLC (Hewlett-Packard Company, Palo Alto, Calif.). TAL or PAL activity was determined by measuring the concentration of the resulting PHCA or cinnamate.
The truncation mutants were analyzed by measuring TAL activity using the whole cell assay described in Example 17. Table 15 summarizes the results:
The C-terminal truncation mutant was analyzed by measuring TAL and PAL activities using the whole cell assay described in Example 17, and pET17b-Km-6 was used as positive control.

[12] = Hanson and Havir 1981; cited from earlier work

## O=C(O)C=Cc1ccc(O)cc1 [PHCA, Para-hydroxycinnamic acid]
[1]; 0.0001-0.0002 mM PHCA
  cell growth: +++
[1]; 0.0003-0.0005 mM PHCA
  cell growth: +++
[1]; 0.001-0.004 mM PHCA
  cell growth: +++
[1]; 10 mM PHCA
  cell growth: −
[1]; 1.0-2.0 mM PHCA
  cell growth: ++
[1]; 4.0-6.0 mM PHCA
  cell growth: +
[1]; high concentrations
  toxicity to the cells: toxic

## N[C@@H](Cc1ccc(O)cc1)C(=O)O [Tyrosine, tyrosine]
[2]; 0.0001-0.0002 mM tyrosine
  cell growth: −
[2]; 0.0003-0.0005 mM tyrosine
  cell growth: +
[2]; 0.001-0.004 mM tyrosine
  cell growth: +++

B1: Wild Type PAL: wildtype R. glutinis (Rhodosporidium toruloides) PAL enzyme, SEQ ID NO:8 (protein)
chain: MAPSLDSISHSFANGVASAKQAVNGASTNLAVAGSHLPTTQVTQVDIVEKMLAAPTDSTLELDGYSLNLGDVVSAARKGRPVRVKDSDEIRSKIDKSVEFLRSQLSMSVYGVTTGFGGSADTRTEDAISLQKALLEHQLCGVLPSSFDSFRLGRGLENSLPLEVVRGAMTIRVNSLTRGHSAVRLVVLEALTNFLNHGITPIVPLRGTISASGDLSPLSYIAAAISGHPDSKVHVVHEGKEKILYAREAMALFNLEPVVLGPKEGLGLVNGTAVSASMATLALHDAHMLSLLSQSLTAMTVEAMVGHAGSFHPFLHDVTRPHPTQIEVAGNIRKLLEGSRFAVHHEEEVKVKDDEGILRQDRYPLRTSPQWLGPLVSDLIHAHAVLTIEAGQSTTDNPLIDVENKTSHHGGNFQAAAVANTMEKTRLGLAQIGKLNFTQLTEMLNAGMNRGLPSCLAAEDPSLSYHCKGLDIAAAAYTSELGHLANPVTTHVQPAEMANQAVNSLALISARRTTESNDVLSLLLATHLYCVLQAIDLRAIEFEFKKQFGPAIVSLIDQHFGSAMTGSNLRDELVEKVNKTLAKRLEQTNSYDLVPRWHDAFSFAAGTVVEVLSSTSLSLAAVNAWKVAAAESAISLTRQVRETFWSAASTSSPALSYLSPRTQILYAFVREELGVKARRGDVFLGKQEVTIGSNVSKIYEAIKSGRINNVLLKMLA
[3]
  TAL/PAL ratio: 0.5
[3]; regional mutant amino acid No. 492-503, Table 19
  TAL/PAL ratio: 0.5
[3]; summary table of mutants
  TAL/PAL ratio: 0.5
[4]
  Km: 111 µM
  kcat: 0.46 s⁻¹
[5]
  highest specific activity, TAL: 0.0650 U/mg protein
[6]
  TAL/PAL ratio (catalytic efficiency): 0.5
[7]
  Km: 250 µM
  kcat: 2.09 s⁻¹
[8]
  highest specific activity, PAL: 0.244 U/mg protein

B2: purified enzyme: purified PAL/TAL enzyme of Rhodosporidium toruloides (protein, UniProt P11544 1-716, looked up)
Phenylalanine/tyrosine …: B1 chain
[9]
  PAL/TAL ratio: 2.12

B3: EP18Km-6: mutant R. glutinis PAL enzyme having enhanced TAL activity, Ile540Thr, SEQ ID NO:10 (protein)
chain: B1 chain with I540T
[10]
  TAL activity ratio versus wild type cell: enhanced TAL activity ratio
[3]; regional mutants amino acid No. 120-280, Table 17
  TAL/PAL ratio: 1.7
[3]; summary table of mutants
  TAL/PAL ratio: 1.7
[4]
  Km: 50 µM
  kcat: 0.63 s⁻¹
[6]
  TAL/PAL ratio (catalytic efficiency): 1.7
[7]
  Km: 333 µM
  kcat: 2.45 s⁻¹
[11]; BL21(DE3) E. coli cells
  TAL/PAL activity of enzyme expressed from pET17b: fully active
[11]; C-terminal truncation mutant in pET17b
  TAL Activity (%): 100%
[11]; N-terminus truncation mutants in pET17b
  TAL Activity (%): 100%

B4: Rhodosporidium: PAL/TAL enzyme of the yeast Rhodosporidium, literature value (protein)
chain: B1 chain
[12]
  ratio of TAL catalytic activity to PAL catalytic activity: approximately 0.58
